Patent publication US4959351A, “Crystal suspensions of insulin derivatives, processes for their preparation and their use” (Hoescht Aktiengesellschaft, priority 1983, dated 1990)

Test: Specific biological activity of the insulin substance used (I.U./mg)
Settings: as stated in the composition
Work on “human insulin-B30-choline ester [human insulin-(B30)-choline ester]” yielded a specific activity of 28.0 I.U./mg. “human insulin--Arg^B31 --OH [Human insulin-Arg^B31 -OH]” showed a specific activity of 27.5 I.U./mg. “Porcine insulin--Arg^B31 --Arg^B32 --OH [Insulin-Arg^B31 -Arg^B32 -OH from pigs]” gave a specific activity of 27.0 I.U./mg. “human insulin--Arg^B31 -Lys--^B32 --OCH3 [Human insulin-Arg^B31 -Lys^B31 -OCH3]” gave a specific activity of 27.0 I.U./mg. human insulin--Arg^B31 --Arg^B32 --OH gave a specific activity of 27.0 I.U./mg.
